Source: US20250144178A1, “PHARMACEUTICAL COMPOSITION FOR CANCER TREATMENT COMPRISING FUSION PROTEIN INCLUDING IL-12 AND ANTI-FAP ANTIBODY AND ANTICANCER AGENT” (KANAPH THERAPEUTICS INC., priority 2022, published 2025)

T1: recombinant mouse FAP (Mus musculus, UniProt P97321)
T1 sequence (P97321 1-761): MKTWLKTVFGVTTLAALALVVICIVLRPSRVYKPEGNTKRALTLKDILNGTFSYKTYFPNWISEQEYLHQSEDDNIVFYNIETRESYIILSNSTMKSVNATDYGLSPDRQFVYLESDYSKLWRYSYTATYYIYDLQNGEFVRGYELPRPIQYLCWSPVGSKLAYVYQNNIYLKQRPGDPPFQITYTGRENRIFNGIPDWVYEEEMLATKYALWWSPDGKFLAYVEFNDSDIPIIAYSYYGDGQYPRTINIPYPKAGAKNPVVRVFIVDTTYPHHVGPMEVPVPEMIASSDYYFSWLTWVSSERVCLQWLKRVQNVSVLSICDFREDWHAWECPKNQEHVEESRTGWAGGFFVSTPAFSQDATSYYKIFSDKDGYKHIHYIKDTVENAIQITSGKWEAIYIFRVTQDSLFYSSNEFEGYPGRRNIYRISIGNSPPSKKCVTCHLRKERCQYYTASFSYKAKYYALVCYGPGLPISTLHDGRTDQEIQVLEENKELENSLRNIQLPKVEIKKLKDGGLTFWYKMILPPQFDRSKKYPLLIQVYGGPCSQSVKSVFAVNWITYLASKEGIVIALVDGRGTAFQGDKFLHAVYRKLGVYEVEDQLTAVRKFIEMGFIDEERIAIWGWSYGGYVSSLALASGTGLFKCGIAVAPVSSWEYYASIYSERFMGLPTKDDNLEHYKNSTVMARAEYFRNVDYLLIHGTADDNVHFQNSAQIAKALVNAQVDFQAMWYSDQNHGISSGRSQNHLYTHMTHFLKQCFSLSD

B1: T1.02m: K&H bispecific: anti-mu FAP/mu IL-12 mut1, mu IgG2a DANG (seq18, seq19, seq21) (antibody)
heavy: QVQLQQSGAELARPGASVNLSCKASGYTFTNNGINWLKQRTGQGLEWIGEIYPRSTNTLYNEKFKGKATLTADRSSNTAYMELRSLTSEDSAVYFCARTLTAPFAFWGQGTLVTVSAAKTTAPSVYPLAPVCGDTTGSSVTLGCLVKGYFPEPVTLTWNSGSLSSGVHTFPAVLQSDLYTLSSSVTVTSSTWPSQSITCNVAHPASSTKVDKKIEPRGPTIKPCPPCKCPAPNLLGGPSVFIFPPKIKDVLMISLSPIVTCVVVAVSEDDPDVQISWFVNNVEVHTAQTQTHREDYGSTLRVVSALPIQHQDWMSGKEFKCKVNNKDLPAPIERTISKPKGSVRAPQVYVLPPPEEEMTKKQVTLWCMVTDFMPEDIYVEWTNNGKTELNYKNTEPVLDSDGSYFMYSKLRVEKKNWVERNSYSCSVVHEGLHNHHTTKSFSRTPGK
light: QIVLTQSPAIMSASPGEKVTMTCSASSGVNFMHWYQQKSGTSPKRWIFDTSKLASGVPARFSGSGSGTSYSLTISSMEAEDAATYYCQQWSFNPPTFGGGTKLEIKRADAAPTVSIFPPSSEQLTSGGASVVCFLNNFYPKDINVKWKIDGSERQNGVLNSWTDQDSKDSTYSMSSTLTLTKDEYERHNSYTCEATHKTSTSPIVKSFNRNEC
chain: MWELEKDVYVVEVDWTPDAPGETVNLTCDTPEEDDITWTSDQRHGVIGSGKTLTITVKEFLDAGQYTCHKGGETLSHSHLLLHKKENGIWSTEILKNFKNKTFLKCEAPNYSGRFTCSWLVQRNMDLKFNIKSSSSSPDSRAVTCGMASLSAEKVTLDQRDYEKYSVSCQEDVTCPTAEETLPIELALEARQQNKYENYSTSFFIRDIIKPDPPKNLQMKPLKNSQVEVSWEYPDSWSTPHSYFSLKFFVRIQRAKEKMAETEEGCNQKGAFLVEKTSTEVQCKGGNVCVQAQDRYYNSSCSKWACVPCRVRSGGGGSGGGGSGGGGSRVIPVSGPARCLSQSRNLLKTTDDMVKTAREKLKHYSCTAEDIDHEDITRDQTSTLKTCLPLELHKNESCLATRETSSTTRGSCLPPQKTSLMMTLCLGSIYEDLKMYQTEFQAINAALQNHNHQQIILDKGMLVAIDELMQSLNHNGETLRQKPPVGEADPYRVKMKLCILLHAFSTRVVTINRVMGYLSSAGGGGSGGGGSEPRGPTIKPCPPCKCPAPNLLGGPSVFIFPPKIKDVLMISLSPIVTCVVVAVSEDDPDVQISWFVNNVEVHTAQTQTHREDYGSTLRVVSALPIQHQDWMSGKEFKCKVNNKDLPAPIERTISKPKGSVRAPQVYVLPPPEEEMTKKQVTLSCAVTDFMPEDIYVEWTNNGKTELNYKNTEPVLDSDGSYFMVSKLRVEKKNWVERNSYSCSVVHEGLHNHHTTKSFSRTPGK
B2: T1.12m: K&H: anti-mu FAP/null, mu IgG2a DANG (seq18, seq19, seq29); used as control (antibody)
heavy: B1 heavy
light: B1 light
chain: EPRGPTIKPCPPCKCPAPNLLGGPSVFIFPPKIKDVLMISLSPIVTCVVVAVSEDDPDVQISWFVNNVEVHTAQTQTHREDYGSTLRVVSALPIQHQDWMSGKEFKCKVNNKDLPAPIERTISKPKGSVRAPQVYVLPPPEEEMTKKQVTLSCAVTDFMPEDIYVEWTNNGKTELNYKNTEPVLDSDGSYFMVSKLRVEKKNWVERNSYSCSVVHEGLHNHHTTKSFSRTPGK

Legend:
[1] = system: CT26 colorectal cancer with mouse FAP overexpressing NIH-3T3 cells; experiment: Tumor growth inhibition, CT26 co-injected with mouse FAP overexpressing NIH-3T3; type: in vivo, BALB/c mice; conditions: for tumor growth inhibitory ability compared to control: 14th day, control 50 μg T1.24m
Procedure: Specifically, the mouse FAP overexpressing NIH-3T3 cells and the CT26 cells in culture were resuspended in Hanks' Balanced salt solution (HBSS, Gibco) at a concentration of 1×10^6 cells/50 μl, respectively, and the cells were mixed in a 1:1 ratio, and then 100 μl per each mouse was transplanted into the subcutaneous region of the right flank of 6-week-old BALB/c mice using a 1 cc syringe (25G) to obtain an FAP-expressing fibroblast co-injection animal model. The tumor size was measured using a digital vernier caliper by measuring the short axis and long axis of the tumor, and the tumor size was measured twice a week using the calculation formula of (short axis, mm) 2×(long axis, mm)×0.5.
Next, for drug efficacy evaluation, when the size of the tumor reached 100 mm^3, the mice were randomly divided into groups. Each experimental group consisted of 10 animals, and as a control, each 100 μl of 50 μg of T1.24m was intraperitoneally administered three times at an interval of 3 days. In the test group, each 100 μl of 10 μg and 50 μg of T1.02m and 50 μg of T1.01m, respectively, were intraperitoneally administered three times at an interval of 3 days to evaluate the tumor growth inhibitory ability.

recombinant mouse FAP = biological target: T1, recombinant mouse FAP; experiment: Surface plasmon resonance binding to recombinant mouse FAP; conditions: SPR, 2 μg/ml protein, FIGS. 13 and 14
Procedure: The surface of the CM5 chip was activated with a 1:1 mixture of […] (N-hydroxysuccinimide) and […] (1-Ethyl-3-(3-dimethylaminopropyl) carbodiimide), and 25 μg/ml of anti-mouse IgG (Fc) antibody was immobilized for 400 seconds at a rate of 10 μl/min. The remaining active ester groups were blocked with 1 M ethanolamine. T1.01m, T1.02m and T1.03m were diluted to 2 μg/ml and reacted on the CM5 chip immobilized with the anti-mouse IgG (Fc) antibody. The recombinant mouse FAP was diluted to 200 nM in 1×HBS-EP+buffer solution and diluted by serial dilution. The diluted recombinant mouse FAP was reacted at a rate of 30 μl/min. The association and dissociation times were 180 seconds and 400 seconds, respectively. After the dissociation, stabilization was performed for 60 seconds, and then a regeneration was performed for 30 seconds with a 10 mM glycine pH 1.5 solution at a rate of 30 μl/min.

[2] = system: FAP-overexpressing mouse colorectal cancer CT26; experiment: Tumor growth inhibition by IL-12 mutation, FAP-overexpressing CT26, single i.v. dose; type: in vivo, BALB/c mice; conditions: 10 μg i.v. once, 15 days after administration, control PBS, FIG. 28
Procedure: In order to evaluate the change in IL-12 activity according to the presence and extent of amino acid mutation, FAP-overexpressing mouse colorectal cancer CT26 was prepared by resuspending in PBS at a concentration of 5×10^5 cells/100 μl, and the tumor growth inhibitory ability was evaluated in a tumor animal model prepared by transplantation of the cells into 5-week-old female BALB/c mice.
Specifically, when the size of the tumor in the model reached 100 mm^3, the mice were randomly divided into groups. 100 μl of phosphate buffered saline (PBS) was administered once via tail vein injection of the control, and each of T1.01m, T1.02m and T1.03m was intravenously administered once at a dose of 10 μg.

[3] = system: FAP-overexpressing CT26 cells; experiment: Tumor growth inhibition, FAP-overexpressing CT26 model, repeated i.p. dosing; type: in vivo, BALB/c mice; conditions: 18 days after administration, control 50 μg T1.24m
Procedure: In order to prepare an mouse FAP-expressing tumor animal model, FAP overexpression was induced in CT26, a mouse colorectal cancer cell line. Specifically, the FAP-overexpressing CT26 cells in culture were resuspended in Hanks' Balanced salt solution (HBSS, Gibco), and then each 100 μl of 1×10^6 tumor cells per each mouse was transplanted into the subcutaneous region of the left dorsal side of 6-week-old BALB/c mice using a 1 cc syringe (25G) to obtain a mouse FAP-expressing colorectal cancer animal model. The tumor size was measured using a digital vernier caliper by measuring the short axis and long axis of the tumor, and the tumor size was measured twice a week using the calculation formula of (short axis, mm) 2×(long axis, mm)×0.5.
Next, for drug efficacy evaluation, when the size of the tumor reached 100 mm^3, the mice were randomly divided into groups. Each experimental group consisted of 8 animals, and as a control, each 100 μl of 50 μg of T1.24m was intraperitoneally administered four times at an interval of 3 days. In the test group, each 100 μl of 10 μg and 100 μg of T1.01m, and 2 μg, 10 μg and 100 μg of T1.02m, respectively, were intraperitoneally administered four times at an interval of 3 days to evaluate the tumor growth inhibitory ability.

HEK-Blue IL-12 cells = experiment: Signaling ability in IL-12 recognizing cells (STAT4 inducible SEAP reporter); type: cell-based, human; conditions: serial dilution from 4 nM, 24 hours, FIG. 18
Procedure: The HEK-Blue IL-12 cell line transformed with the IL-12 receptor gene and the STAT4 inducible SEAP reporter gene into HEK293 cells, which are human embryonic kidney fibroblasts, was obtained from Invivogen (San Diego, USA). The HEK-Blue IL-12 cells were maintained in DMEM (GIBCO) containing 10% FBS (GIBCO), 100 μg/ml Normocin and 1×HEK-Blue selection.
Specifically, the HEK-Blue IL-12 cell line, which is an IL-12 recognizing cell, was diluted to 2.8×10^5 cells/ml and dispensed at 180 μl/well. Recombinant human IL-12, T1.01m, T1.02m, T1.03m and T1.12m were suspended at 4 nM and diluted by serial dilution. HEK-Blue IL-12 cells were treated with the diluted recombinant human IL-12, T1.01m, T1.02m, T1.03m and T1.12m. After 24 hours of treatment, the cell supernatant was collected and mixed with QUANTI-Blue Solution (Invivogen) in a 96-well plate. The reporter expression level was measured at 620 nm using a spectrophotometer (Thermo Fisher).

Molecule | tumor growth inhibitory ability compared to control ([1]; 10 μg i.p. three times at an interval of 3 days) [%] | tumor growth inhibitory ability compared to control ([1]; 50 μg i.p. three times at an interval of 3 days) [%] | complete response ([1]; 24th day after administration, FIG. 24) | Binding to recombinant mouse FAP (recombinant mouse FAP) | tumor growth inhibitory ability compared to the control [2] | tumor growth inhibitory ability compared to control ([3]; 2 μg i.p. four times at an interval of 3 days) [%] | tumor growth inhibitory ability compared to control ([3]; 10 μg i.p. four times at an interval of 3 days) [%] | tumor growth inhibitory ability compared to control ([3]; 100 μg i.p. four times at an interval of 3 days) [%] | IL-12 recognition / STAT4 reporter gene expression (620 nm absorbance) (HEK-Blue IL-12 cells)
B1 | 93.2 | 92.7 | subjects in complete response were observed | may bind to recombinant mouse FAP to specifically target FAP | excellent tumor growth inhibitory ability | 80.1 | 90.5 | 89.8 | IL-12 was recognized, and STAT4 expressed a reporter gene by inducing phosphorylation
B2 |  |  |  |  |  |  |  |  | did not recognize IL-12
